Assay [1] addresses CD25人源化单抗 (Zenapax, ROCHE公司产品). Kind of assay: sandwich ELISA, compared with the commercial anti-kappa capture antibody. A general note: An ELISA detects its analyte on a solid surface through an enzyme-linked reagent.
In assay [2] the target is CD25人源化单抗 (Zenapax, ROCHE公司产品). Kind of assay: sandwich ELISA, 5G7 coated at 1 μg/ml, Zenapax titrated, HRP anti-human IgG Fc gamma detection.

Here are results for one molecule from patent CN101643510A.

B1: 重组抗CD25人源化单克隆抗体的抗体 5G7 (antibody, V domains shown)
VH: EVKLEESGGGLEQPGGSMKLSCVASGFTFSNYWMNWVRQSPDKGLEWVAQIRWKSDNYATHYAESVKGRFSISRDDSKSSVYLQMNNLRVEDSGIYYCTGGGSYVAHWGQGTLVTVSA
VL: DIVLTQSPASLAVSLGQSVTVSCRASESVENYGTTLMQWYQQKPGQPPKLLIYGVSNVESGVPARFSGSGSGTDFTLNIHPVEEDDIAMYFCQQSRKVPWTFGGGTKLEIKR
B1: in assay [1], the 灵敏度 fold against 市售抗体 is 100 fold. In assay [2], the 灵敏度 (detection sensitivity) amounted to 0.01 ng/mL.
